# Assay results published in US9181310B2 (priority 2003, dated 2015).
# Entries after “also recorded” stand apart in the source; their conditions may differ. Where two headings read alike, the source gives them in different places. No end group written: not given here.
# Assays:
# [1] = incubated with intercellular plant fluid of potato; cited from earlier work
# [2] = incubated with intercellular plant fluid of rice; cited from earlier work
# E. coli ER2566 [3] = type: cell-based; conditions: for bacterial stasis induced by expression: berberine chloride 250 ug/ml, 0.25 mM IPTG, 20 hrs of induction
# E. coli ER2566 [4] = type: cell-based
# [5] = system: X. pelargonii strain CHSC; conditions: in vivo
# R. solanacearum = type: in vivo; conditions: sweet pepper leaves, transient expression from pIPG780, 48 hrs after challenge
# X. pelargonii = conditions: in vivo
# [6] = system: X. pelargonii strain CHSC; assay: Pathogen challenge of transgenic geranium; type: in vivo
# Method: Following inoculation, plants were held at 32° C. The circled region was cut out, and contained ca. 10^5 cfu/cm^2 live X. pelargonii cells (for details, refer Example 11 below). Photo taken four weeks after inoculation.
# Following inoculation, plants were held at 32° C. […] Photo taken four weeks after inoculation.
# Cell counts were taken daily for nine days by removing circular sections totaling 1 square centimeter (cm^2) using a cork borer from three inoculated leaves in the area most likely to contain pathogen cells (refer FIGS. 1 and 2). These leaf sections were macerated with a mortar and pestle and 1 milliliter of buffer, diluted using a 1:10 dilution series and 10 microliter drops placed on solid growth medium for counting. […] These plants were both immune to X. pelargonii infection, and rapidly brought the artificially inoculated pathogen population to extinction.
# Inoculations were performed using liquid culture grown X. pelargonii cells, sprayed on the leaves at a concentration of 10^7 colony forming units per milliliter (cfu/ml) each. X. pelargonii was also inoculated using scissors dipped in 10^9 cfu/ml of cells to clip the leaves in several places on the same plants that were sprayed. Following X. pelargonii inoculation, plants were held at 32° C. to encourage pathogen growth and symptom development. Four weeks after inoculation, photographs were taken of both nontransgenic geranium variety “Avenida” inoculated with X. pelargonii (FIG. 1) and transgenic geranium of the same variety “Avenida” expressing BombBC inoculated with X. pelargonii (FIG. 2), and circular sections totaling 1 square centimeter (cm^2) were removed using a cork borer from three inoculated leaves in the area most likely to contain pathogen cells (refer FIGS. 1 and 2). Consistently, 10^5 cfu/ml of X. pelargonii was recovered from nontransgenic geranium variety “Avenida” plants at four weeks after inoculation (FIG. 3), and symptoms progressed systemically until the entire plant was dead, usually by 12 weeks after inoculation. […] These plants were immune to X. pelargonii infection.
# [7] = system: R. solanacearum strain Rsp673; type: in vivo; conditions: transgenic geranium Avenida
# [8] = system: R. solanacearum strain Rsp446; type: in vivo; conditions: after 68 days
# [9] = system: Ca. Liberibacter asiaticus; type: in vivo; conditions: transgenic tobacco Xanthi, same on retest three weeks later
# [10] = system: purified LPS extracted from X. campestris pv. pelargonii, X. citri, Rhizobium leguminosarum and Ralstonia solanacearum; type: biochemical; conditions: 5 ug purified protein, room temperature, 2 hours
# [11] = system: LPS of X. campestris pv. pelargonii, X. citri, Rhizobium leguminosarum and Ralstonia solanacearum; type: binding; conditions: treated LPS lanes, Western blot
# [12] = system: rice (Oryza sativa japonica) cv. TP309; assay: Stable transformation of rice, effect on the plant; conditions: stable transformation with pIPG787
# [13] = system: Nicotiana tabaccum cv. Xanthi; assay: Stable transformation of tobacco, effect on the plant; conditions: stable transformation with pIPG786
# [14] = system: geranium (Pelargonium X hortorum) cv. Avenida; assay: Stable transformation of geranium, effect on the plant; conditions: stable transformation with pIPG787
# [15] = system: E. coli strains ADA410 P3rpoH::lacZ reporter (LPS or outer membrane damage); assay: P3rpoH::lacZ reporter, purified protein droplets on ADA410 cells on X-gal agar; conditions: ten microliter droplets of purified protein, 24 hr
# [16] = Exp. 1, cutting (T0), inoculum 5 × 10^7 cfu/ml
# [17] = Exp. 2, cutting (T0), inoculum 1 × 10^8 cfu/ml
molecule,measurement,setting,value
"cecropin B: linear lytic peptide rapidly degraded by plant proteases (KWKVFKKIEKMGRNIRNGIVKAGPAIAVLGEAKAL; ends and bridges not checked; UniProt P01508 27-61, looked up)",half-life,[1],about three
same,half-life,[2],about 25 hours
"D1: BombBC deletion, aa26-169 of BC, SEQ ID 6 (protein, mutant D1 predicted amino acid sequence) MPIAVVALARFGSQSTTTTKAAADALGTTVGKIDDIRKNRNFAYVTADFKPTEAQKADGIEWLKRHPVGADALIEELQNLPVATAEESAAFEQVRASARGQNAKTAEGEVAQAGGGNRRKKKEKPAEAGEVQNPPAADGDSLLS",bacterial stasis induced by expression,E. coli ER2566 [3],clearly induced
same,activity of expression clone (growth in presence of berberine chloride),"E. coli ER2566 [3]; berberine chloride (5 micrograms/ml), 20 h after induction",Active
"BombOrf9: Phage 13 ORF 9 from Xanthomonas campestris pv. pelargonii, SEQ ID No. 13 (protein, listed as Xanthomonas campestris) MVVVAQGTVPAKVHPQLTNLTALFADAVGLFLDVSDKVADLLVRFADVEAQGAELLLDLAHLAVPASVVHPTHAGQDQTVPAASDILHGVLEGQPVALVVNQRALRAAQLNPLLALRLDVEAVADQDAEGGAVAHAHAGDQLAVEQKLQILLERFGHDALAGHRRVEPIAYLVDVRSWEAGALDADQPRDDTADGDDAHAQRFVRHVERDGFGSGVLHPSQVRQRLAVLVDDFVEGSRVALDDRANHGEVGVDRVHQ",activity of expression clone (growth in presence of berberine chloride),E. coli ER2566 [4],Active
same,relative strength of activity in E. coli,E. coli ER2566 [4],Weak activity
"BombORF35PA: Phage PhiKMV ORF 35 from Pseudomonas aeruginosa, SEQ ID No. 9 (protein, listed as Pseudomonas aeruginosa) MAFWLPLLAAGGMSALQQGLANKEERNKIKAENKARLKTDLDNLGAAARDIANLGVMAASYRKQAVASQVEAKRQGMLAGGSAEAQAGAFGVKGASVDAVALDIEREVGEALIQIDDNLDNQMWNLAEQAHSIQAQAKAGLLGQKSTTAGQRSPLVAGLMSAGSLYASQYFKFGATPKGGN",activity of expression clone (growth in presence of berberine chloride),E. coli ER2566 [4],Active
"BombOrfL: Phage 15 ORF L from Xanthomonas campestris pv. pelargonii, SEQ ID No. 15 (protein, listed as Xanthomonas campestris) MPTVDATPGSITANSYVTVAEANSYFDGSYGRPLWTSASEDEKASLVISASRYLDQMMAWIGAPTNPEQSMWWPCKNAVIGGMTLSQVSIPVKVKIAVFELAYFMLESGAALSFADQTIDSVKVGTIRVEFTKNSTDAGLPTFVEAMLSGFGSPVLYGSNAARSIDLVRA",activity of expression clone (growth in presence of berberine chloride),E. coli ER2566 [4],Active
"BombBC: Bacteriophage Outer Membrane Breaching protein of Xanthomonas phage P15 (Xp15) ORF BC, 17.9 kD, SEQ ID NO. 17 (protein, listed as Xanthomonas campestris) MSDQTDTTQTTPAEKAPPKEIIRGRMPIAVVALARFGSQSTTTTKAAADALGTTVGKIDDIRKNRNFAYVTADFKPTEAQKADGIEWLKRHPVGADALIEELQNLPVATAEESAAFEQVRASARGQNAKTAEGEVAQAGGGNRRKKKEKPAEAGEVQNPPAADGDSLLS",HR symptoms elicited by X. pelargonii,[5],abolished
same,HR symptoms elicited by R. solanacearum,R. solanacearum,abolished
same,drop in the number of colony forming units vs. control leaves,X. pelargonii,100 ×
same,pathogenic symptoms caused by X. pelargonii,X. pelargonii,greatly reduced
same,resistance status to X. pelargonii infection,[6]; transgenic geranium Avenida,immune
same,X. pelargonii cells in cut out leaf region,"[6]; transgenic geranium Avenida leaf, four weeks after inoculation",no detected X. pelargonii cells
same,symptoms of geranium blight,"[6]; transgenic geranium Avenida, 32° C.",no evidence of symptoms
same,living X. pelargonii cells recovered,"[6]; transgenic geranium Avenida, after five days following inoculation",no living X. pelargonii cells were recovered
same,symptom development of bacterial wilt,"[7]; syringe infiltration and soil inoculation, 32° C.","failed to progress past the leaf area where the pathogen was directly infiltrated; also recorded: No symptom development, other than that which initially developed in, and stayed restricted to, the region of inoculation"
same,detected R. solanacearum cells,[7]; twelve weeks after inoculation,no detected R. solanacearum cells
same,number of survivors/total tested,[8]; [16],10/15
same,per cent survivors,[8]; [16],(63%)
same,number of survivors/total tested,[8]; [17],9/20
same,per cent survivors,[8]; [17],(45%)
same,number of survivors/total tested,"[8]; Exp. 3, seeded (T1), inoculum 2 × 10^8 cfu/ml",0/21
same,plants symptomatic for greening,[9]; 4 weeks connected to dodder,neither of the two
same,plants PCR positive for greening,[9]; nested PCR,neither were PCR positive
same,bacterial stasis induced by expression,E. coli ER2566 [3],clearly induced
same,activity of expression clone (growth in presence of berberine chloride),E. coli ER2566 [4],Active
same,degradation of LPS,[10],enzymatically degrades LPS
same,attachment to LPS,[11],attached to the degraded LPS of all species tested
same,detrimental effect on rice plants,[12],not detrimental
same,detrimental effect on tobacco plants,[13],not detrimental
same,detrimental effect on geranium plants,[14],not detrimental
same,blue color around ADA410 cells (P3rpoH::lacZ activation),[15],Blue color slowly developed and intensified
